Measurements reported in the Human Domainome abundance scans (Beltran et al. 2025).
± gives the uncertainty stated by the source.

B1: SAM and SH3 domain-containing protein 1, residues 630 to 700; numbered along this chain, O94885 (parent)
chain: GRPPQPKSVEDLLDRINLKEHMPTFLFNGYEDLDTFKLLEEEDLDELNIRDPEHRAVLLTAVELLQEYDSN

Variants of: B1
Test: abundance fitness (aPCA) (normalised: wild type 0, dead -1); higher = more abundant; growth selection in yeast, the domain comes from the species named
Conditions: Homo sapiens

Variant	abundance fitness
L58I	0.167 ± 0.048
N17Y	-0.904 ± 0.086
N17V	-0.817 ± 0.062
N17Q	-0.289 ± 0.053
N17A	-0.349 ± 0.046
N17D	-0.234 ± 0.057
N17E	-0.333 ± 0.063
T35E	-0.211 ± 0.067
T35G	-0.442 ± 0.062
T35V	-0.492 ± 0.056
T35C	-0.206 ± 0.053
P4A	0.046 ± 0.051
P4F	0.2 ± 0.05
P4M	0.078 ± 0.059
P4R	-0.198 ± 0.057
P4E	0.237 ± 0.067
Q5P	-0.276 ± 0.055
Q5M	-0.033 ± 0.048
Q5D	-0.783 ± 0.12
Q5F	0.068 ± 0.048
Q5K	-0.258 ± 0.061
Q5Y	0.202 ± 0.049
L13K	-0.715 ± 0.08
L13Q	-0.447 ± 0.081

Variant	abundance fitness
L13I	-1.04 ± 0.11
L13P	-0.71 ± 0.07
L13V	-1 ± 0.085
L13C	-0.946 ± 0.1
L13Y	-0.905 ± 0.096
L13A	-0.788 ± 0.075
D43E	-0.503 ± 0.067
D43A	-0.325 ± 0.045
D43H	-0.201 ± 0.042
D43P	-0.939 ± 0.065
D43Q	-0.142 ± 0.041
D14R	-0.434 ± 0.055
D14P	-0.834 ± 0.086
Y30A	-0.92 ± 0.076
Y30K	-0.901 ± 0.099
Y30G	-0.987 ± 0.076
Y30R	-0.891 ± 0.068
Y30C	-0.704 ± 0.076
A61N	-0.479 ± 0.066
A61P	-0.731 ± 0.069
A61E	0.074 ± 0.062
F27H	0.246 ± 0.042
F27N	0.418 ± 0.04
F27G	0.166 ± 0.039

Variant	abundance fitness
F27V	0.235 ± 0.037
F27S	0.406 ± 0.032
F27I	0.157 ± 0.045
F27Q	0.393 ± 0.043
L47Y	-0.783 ± 0.065
L47M	0.017 ± 0.048
L47H	-0.788 ± 0.062
L47E	-0.765 ± 0.094
L47W	-0.959 ± 0.092
L47D	-0.828 ± 0.073
K7N	-0.142 ± 0.041
K7I	-0.086 ± 0.042
K7T	0.095 ± 0.04
K7M	-0.309 ± 0.066
K7A	-0.066 ± 0.046
K7W	-0.873 ± 0.12
S70F	-0.508 ± 0.23
P23N	0.102 ± 0.043
P23S	0.038 ± 0.037
P23Y	-0.271 ± 0.052
P23I	-0.398 ± 0.063
P23K	0.043 ± 0.053
P3D	0.2 ± 0.053
P3F	0.044 ± 0.048

Variant	abundance fitness
M22K	-0.252 ± 0.055
M22C	-0.135 ± 0.043
M22P	-0.999 ± 0.087
M22T	0.009 ± 0.04
E67C	-0.3 ± 0.057
E67R	-0.167 ± 0.04
D34Q	-0.116 ± 0.048
D34L	-0.67 ± 0.045
D34V	-0.719 ± 0.055
D34H	-0.426 ± 0.049
L18V	-0.742 ± 0.052
L18G	-0.89 ± 0.064
Y68L	-0.068 ± 0.038
Y68G	0.168 ± 0.041
Y68K	0.054 ± 0.056
Y68S	0.14 ± 0.038
Y68E	0.21 ± 0.053
Y68C	0.105 ± 0.051
Y68A	0.245 ± 0.039
K19E	-0.434 ± 0.073
K19W	-0.607 ± 0.072
K19C	-0.419 ± 0.056
K19S	0.085 ± 0.033
E63A	0.034 ± 0.035

Variant	abundance fitness
E63F	-0.866 ± 0.08
E63K	0.244 ± 0.042
E63S	0.004 ± 0.034
E63Y	-0.687 ± 0.064
E10F	-0.443 ± 0.054
E10L	-0.532 ± 0.045
E10S	-0.423 ± 0.046
E10A	-0.145 ± 0.046
E10G	-0.434 ± 0.063
F25L	-0.266 ± 0.041
F25V	-0.758 ± 0.063
F25W	-0.891 ± 0.088
F25M	-0.676 ± 0.073
E53K	-0.131 ± 0.048
E53F	-0.673 ± 0.079
E53N	-0.146 ± 0.05
E53T	-0.207 ± 0.043
E53Q	-0.051 ± 0.049
E53V	-0.283 ± 0.046
D69Q	-0.262 ± 0.052
D69N	-0.289 ± 0.058
D69K	-0.29 ± 0.055
D69S	-0.296 ± 0.04
D69P	-0.081 ± 0.041

Variant	abundance fitness
L33W	-1.19 ± 0.17
L33N	-0.764 ± 0.081
L33V	-0.607 ± 0.058
L33R	-0.926 ± 0.068
L33E	-0.962 ± 0.14
E42M	-0.476 ± 0.066
E42W	-0.618 ± 0.08
E42S	0.102 ± 0.034
H54V	-0.189 ± 0.037
H54E	0.13 ± 0.052
H54S	-0.408 ± 0.04
H54G	-0.832 ± 0.055
P6Y	0.128 ± 0.049
P6A	-0.421 ± 0.056
P6K	-0.63 ± 0.1
P6D	-0.158 ± 0.058
D11E	0.148 ± 0.049
D11T	-0.818 ± 0.064
D11S	-0.749 ± 0.052
D11M	-0.97 ± 0.088
L44K	-0.746 ± 0.076
L44E	-0.757 ± 0.077
L44S	-0.875 ± 0.062
L44R	-0.904 ± 0.065

Variant	abundance fitness
L44G	-0.819 ± 0.065
L44P	-0.764 ± 0.073
R15P	-0.828 ± 0.072
R15E	-0.07 ± 0.055
R15S	0.116 ± 0.033
R15M	0.142 ± 0.042
R15G	-0.342 ± 0.049
R15K	-0.036 ± 0.049
A56S	0.011 ± 0.031
A56C	-0.272 ± 0.046
A56H	-0.057 ± 0.037
A56N	-0.108 ± 0.04
A56E	0.085 ± 0.05
L59Q	-0.478 ± 0.071
L59Y	-0.823 ± 0.072
L59T	-0.562 ± 0.055
L59I	-0.525 ± 0.064
L59P	-0.445 ± 0.051
V9K	-0.701 ± 0.077
V9W	-1.05 ± 0.17
V9P	-0.632 ± 0.063
V9I	-0.235 ± 0.046
V9L	0.032 ± 0.035
